Experimental data published in patent US20090098142A1.

Experiments:
[1] = target: native human IL-13 (human) (UniProt P35225); experiment: cell-based or functional assay
[2] = target: cynomolgus monkey IL-13 (NHP IL-13) (cynomolgus monkey); experiment: cell-based or functional assay
Sequence of cynomolgus monkey IL-13 (NHP IL-13) (cynomolgus monkey) (Q5I6E4 other isoform, or with tags, fused parts or gaps): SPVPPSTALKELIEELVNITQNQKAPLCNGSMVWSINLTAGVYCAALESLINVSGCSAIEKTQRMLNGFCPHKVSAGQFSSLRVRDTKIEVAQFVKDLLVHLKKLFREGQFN

Sequence of native human IL-13 (human) (P35225 other isoform, or with tags, fused parts or gaps): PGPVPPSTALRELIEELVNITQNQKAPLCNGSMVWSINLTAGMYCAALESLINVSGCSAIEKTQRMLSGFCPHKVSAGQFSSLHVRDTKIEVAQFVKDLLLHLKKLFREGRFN

STAT6 phosphorylation assay, native human IL-13 at 1 ng/ml, IC50 [1]: 554 pM | CD23 expression assay, non-human primate IL-13 at 1 ng/ml, IC50 [2]: 308 pM
B1: antibody with the murine heavy chain of MJ2-7 and a humanized light chain (antibody, part only; not given: humanized light chain, V domains shown, part only)
VH: EVQLQQSGAELVKPGASVKLSCTGSGFNIKDTYIHWVKQRPEQGLEWIGRIDPANDNIKYDPKFQGKATITADTSSNTAYLQLNSLTSEDTAVYYCARSEENWYDFFDYWGQGTTLTVSS
